Columns and labels:
[1] = molecular target: T1, ngMutL (Neisseria gonorrhoeae, UniProt Q5F8M6 1-658); experiment: EMSA; increasing ATP; binding not significantly reduced by ATP; 20 mM HEPES pH 8.0, 100 mM KCl, 0.5 mg/mL BSA, 1 mM DTT, 20 nM DNA, 15-1000 nM ngMutL dimer, 10 min on ice; 6% native PAGE in TAE at 4 C; conditions: protein: recombinant; tags: N-terminal His6; chain copies: 2; label: 3'-TAMRA on strand 1; duplex with unpaired G4 insert in strand 1, blunt ends
T1 sequence: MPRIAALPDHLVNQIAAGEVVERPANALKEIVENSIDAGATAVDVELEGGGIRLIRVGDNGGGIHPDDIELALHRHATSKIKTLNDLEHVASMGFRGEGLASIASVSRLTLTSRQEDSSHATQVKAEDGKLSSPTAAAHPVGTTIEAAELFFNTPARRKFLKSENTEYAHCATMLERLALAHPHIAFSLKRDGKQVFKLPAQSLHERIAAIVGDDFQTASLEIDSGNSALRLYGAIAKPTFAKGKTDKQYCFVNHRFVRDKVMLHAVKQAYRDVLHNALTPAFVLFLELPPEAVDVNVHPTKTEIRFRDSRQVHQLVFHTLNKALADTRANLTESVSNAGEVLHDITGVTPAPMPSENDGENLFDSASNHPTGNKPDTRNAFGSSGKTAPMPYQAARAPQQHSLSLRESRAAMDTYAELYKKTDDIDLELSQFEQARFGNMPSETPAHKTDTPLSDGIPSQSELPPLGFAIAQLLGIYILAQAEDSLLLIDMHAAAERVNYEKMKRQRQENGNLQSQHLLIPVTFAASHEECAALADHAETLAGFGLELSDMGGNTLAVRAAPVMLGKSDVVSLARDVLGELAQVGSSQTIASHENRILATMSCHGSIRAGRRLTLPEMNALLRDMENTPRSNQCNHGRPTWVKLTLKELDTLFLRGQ

[2] = molecular target: T1, ngMutL; experiment: EMSA; apparent Kd, per dimer; no ATP; 20 mM HEPES pH 8.0, 100 mM KCl, 0.5 mg/mL BSA, 1 mM DTT, 20 nM DNA, 15-1000 nM ngMutL dimer, 10 min on ice; 6% native PAGE in TAE at 4 C; conditions: protein: recombinant, tags: N-terminal His6, chain copies: 2, label: 3'-TAMRA on strand 1, blunt

B1: 95G4/76M (mixed)
DNA 1: ATAGGACGCTGACACTGGTGCTTGGCAGCTGAGCCATATTTGGGTGGGTGGGTGGGTTGCTCGAGTAACGCTCATAGGATCCAAGCGCGAAAGGA
DNA 2: TCCTTTCGCGCTTGGATCCTATGAGCGTTACTCGAGCATATGGCTCAGCTGCCAAGCACCAGTGTCAGCGTCCTAT
binding result [1]: binds

B2: 41pilG4/41M (dsDNA)
DNA 1: ACGCGTTAGAATAGGGTGGGTTGGGTGGGGAATTTTCTATT
DNA 2: AATAGAAAATTCCCCACCCAACCCACCCTATTCTAACGCGT
Kd ([2]; G4 may be partially preserved by CD): 650 nM

B3: 95pilG4/95M (dsDNA)
DNA 1: GTCGGAATTTGAGATTTTTGAATTTACGCGTTAGAATAGGGTGGGTTGGGTGGGGAATTTTCTATTTTTTAAAAAGCTCCGTTTTCTTGGAAAGC
DNA 2: GCTTTCCAAGAAAACGGAGCTTTTTAAAAAATAGAAAATTCCCCACCCAACCCACCCTATTCTAACGCGTAAATTCAAAAATCTCAAATTCCGAC
Kd [2]: 123 nM

From PMC10094033, “pilE G-Quadruplex Is Recognized and Preferentially Bound but Not Processed by the MutL Endonuclease from Neisseria gonorrhoeae Mismatch Repair Pathway”
